The source of these data is paper PMC7083852, “Ultrafast in-gel detection by fluorescent super-chelator probes with HisQuick-PAGE” (Communications Biology, 2020).

This test deals with T1, Thermus thermophilus multidrug-resistance protein A (TmrA), C-terminal His10-tag (Thermus thermophilus, UniProt Q72J05 1-600).
T1 construct: Thermus thermophilus multidrug-resistance protein A (TmrA), subunit of the heterodimeric ABC transporter TmrAB; Produced and purified together with TmrB as the heterodimer TmrAB; also called His10-tagged subunit of TmrAB; not shown: His10, C-terminal, kept
T1 sequence (looked up): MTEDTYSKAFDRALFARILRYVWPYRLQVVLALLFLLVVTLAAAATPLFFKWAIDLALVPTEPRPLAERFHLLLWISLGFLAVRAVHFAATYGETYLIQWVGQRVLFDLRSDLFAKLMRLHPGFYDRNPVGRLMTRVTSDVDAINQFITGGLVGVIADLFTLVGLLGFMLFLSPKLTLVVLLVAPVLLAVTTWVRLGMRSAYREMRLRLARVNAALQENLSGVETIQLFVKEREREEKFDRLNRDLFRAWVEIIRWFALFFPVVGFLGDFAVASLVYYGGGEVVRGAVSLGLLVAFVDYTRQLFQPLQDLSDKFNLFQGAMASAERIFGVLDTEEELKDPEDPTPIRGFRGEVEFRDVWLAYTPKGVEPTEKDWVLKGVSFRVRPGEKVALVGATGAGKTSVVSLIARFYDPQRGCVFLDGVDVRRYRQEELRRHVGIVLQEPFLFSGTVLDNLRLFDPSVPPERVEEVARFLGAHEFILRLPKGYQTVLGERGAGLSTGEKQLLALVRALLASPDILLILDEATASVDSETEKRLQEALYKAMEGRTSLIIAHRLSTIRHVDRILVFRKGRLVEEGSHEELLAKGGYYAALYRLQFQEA
Description: native gel or EMSA; blue native PAGE of purified TmrAB (1.3 µg, 500 nM; produced in E. coli and purified as a whole via His10 on TmrA and by SEC) in DDM or reconstituted in MSP1D1 nanodiscs; labelled with tris- or hexaNTA-Alexa647 (450 nM), in-gel fluorescence. As to conditions: both partners purified.

B1: Thermus thermophilus multidrug-resistance protein B (TmrB) (natural protein, UniProt Q72J04 1-578, looked up)
chain: MTGRSAAPLLRRLWPYVGRYRWRYLWAVLAGLVSIFFFVLTPYFLRLAVDAVQAGRGFGVYALAIVASAALSGLLSYAMRRLAVVASRQVEYDLRRDLLHHLLTLDRDFYHKHRVGDLMNRLNTDLSAVREMVGPGILMGSRLSFLVLLAFLSMYAVNARLAFYLTLILPGIFLAMRFLLRLIDRRYREAQEVFDRISTLAQEAFSGIRVVKGYALERRMVAWFQDLNRLYVEKSLALARVEGPLHALLGFLMGFAFLTVLWAGGAMVVRGELSVGELVQFNAYLAQLTWPILGLGWVMALYQRGLTSLRRLFELLDEKPAIRDEDPLPLALEDLSGEVRFEGVGLKRDGRWLLRGLTLTIPEGMTLGITGRTGSGKSLLAALVPRLLDPSEGRVYVGGHEARRIPLAVLRKAVGVAPQEPFLFSETILENIAFGLDEVDRERVEWAARLAGIHEEILAFPKGYETVLGERGITLSGGQRQRVALARALAKRPKILILDDALSAVDAETEARILQGLKTVLGKQTTLLISHRTAALRHADWIIVLDGGRIVEEGTHESLLQAGGLYAEMDRLQKEVEA
notes: Thermus thermophilus multidrug-resistance protein B (TmrB), subunit of the heterodimeric ABC transporter TmrAB; Produced and purified together with TmrA as the heterodimer TmrAB; also called subunit of TmrAB
Turning to B1, the binding result was “binds”.
